# Experimental data: patent US20150216948A1, “CYTOCHROME P450 SUICIDE GENE SYSTEM” (priority 2012, published 2015)
# Where two headings read alike, the source gives them in different places.
# B1: r-P422: wildtype rabbit CYP4B1 enzyme (protein, listed as Oryctolagus cuniculus)
# chain: MLGFLSRLGLWASGLILILGFLKLLRLLLRRQRLARAMDSFPGPPTHWLFGHALEIQKTGSLDKVVTWTQQFPYAHPLWVGQFIGFLNIYEPDYAKAVYSRGDPKAPDVYDFFLQWIGKGLLVLDGPKWFQHRKLLTPGFHYDVLKPYVAIFADSTRIMLEKWEKKACEGKSFDIFSDVGHMALDTLMKCTFGKGDSGLNHRDSSYYVAVSELTLLMQQRIDSFQYHNDFIYWLTPHGRRFLRACRAAHDHTDRVIRQRKAALQDEKEREKIQNRRHLDFLDILLDVRGESGVQLSDTDLRAEVDTFMFEGHDTTTSGISWFLYCMALYPEHQQRCREEVREILGDQDSFQWEDLAKMTYLTMCMKECFRLYPPVPQVYRQLSKPVSFVDGRSLPAGSLISLHIYALHRNSDVWPDPEVFDPLRFSPENSSGRHPYAFIPFSAGPRNCIGQQFAMNEMKVVTALCLLRFEFSVDPLRLPIKLPQLVLRSKNGIHLYLKPLGPK
# B2: h-S427: native human CYP4B1 protein with serine at position 427 (protein, listed as Homo sapiens)
# chain: MVPSFLSLSFSSLGLWASGLILVLGFLKLIHLLLRRQTLAKAMDKFPGPPTHWLFGHALEIQETGSLDKVVSWAHQFPYAHPLWFGQFIGFLNIYEPDYAKAVYSRGDPKAPDVYDFFLQWIGRGLLVLEGPKWLQHRKLLTPGFHYDVLKPYVAVFTESTRIMLDKWEEKAREGKSFDIFCDVGHMALNTLMKCTFGRGDTGLGHRDSSYYLAVSDLTLLMQQRLVSFQYHNDFIYWLTPHGRRFLRACQVAHDHTDQVIRERKAALQDEKVRKKIQNRRHLDFLDILLGARDEDDIKLSDADLRAEVDTFMFEGHDTTTSGISWFLYCMALYPEHQHRCREEVREILGDQDFFQWDDLGKMTYLTMCIKESFRLYPPVPQVYRQLSKPVTFVDGRSLPAGSLISMHIYALHRNSAVWPDPEVFDSLRFSTENASKRHPFAFMPFSAGPRNCIGQQFAMSEMKVVTAMCLLRFEFSLDPSRLPIKMPQLVLRSKNGFHLHLKPLGPGSGK
# Tests used:
# primary human T-cells = assay: 4-IPO toxicity in transduced primary T-cells; type: cell-based; conditions: 24 h and 72 h exposure to increasing doses of 4-IPO, EGFP fusions, FIG. 7 B
# From the text: Compared to the HepG2 liver cells, primary T-cells might not provide an optimal environment for the function of P450 cytochromes (although the necessary reductase is ubiquitously expressed) and the infection of primary T-cells is considerably more complex.
# The T cells were isolated by Ficoll and stimulated with CD3, CD28 and IL2 for 3 days before they were infected with lentiviral vectors using fibronectin. For optimal toxicity in T cells, the suicide genes were not expressed as EGFP fusions proteins but a IRES-EGFP-WPRO vector construct was used. […] However, after 24 hours over 70% of the transgenic T cells were eliminated by CYP4B1 P427 mut12. […] The determination of the virus titer was based on the titration of the reference cell line HT1080.
# HepG2 cells [1] = assay: Half-life of CYP4B1/EGFP fusion proteins after cycloheximide (western blot, FACS); type: cell-based, human; conditions: EGFP fusion
# Procedure: FIGS. 3 C and D show CYP4B1 stability as analysed by western blotting and by flow cytometry. The studies on protein expression and stability were performed with the rabbit and human CYP4B1/EGFP fusion construction in the lentiviral vector with the additional IRES-neomycin cassette. Half-life analysis was performed by adding 50 μg/ml cycloheximide to the transduced and G418-selected HepG2 cells. Samples were collected at the indicated time points.
# (§1) Next, it was analyzed whether the different activities of the human and the rabbit proteins in processing 4-IPO could be explained by differences in protein half-life. However, as no antibody was available that can detect both CYP4B1 proteins, EGFP fusion constructs were generated. With these constructs, EGFP antibodies can be utilized to visualize and compare the expression levels and the half-lives of the fusion proteins in cells by western blots. EGFP expression can also be used for flow cytometry assessment of the expression levels due to the fluorescent properties of the fusion proteins. 5′- and 3′-fusions of EGFP with the native rabbit P422 and the human P427 CYP4B1 proteins were cloned in LV vectors with an IRES-NEO (NEO=neomycin phosphotransferase cDNA, npt II) and stably expressed in HepG2 cells (FIG. 3 B). For comparison, the corresponding IRES-EGFP constructs were also included, as these vectors had already been used in previous experiments and activity measurements thus already existed. Transduced cells were incubated for 24, 48 and 72 hours with increasing concentration of 4-IPO. Cultures were then harvested, cells stained with propidium iodine and subsequently analyzed for survival of transduced EGFP+ cells by flow cytometry (FIG. 3 A).
# After standard inhibition of de novo protein synthesis by cycloheximide, the half-life of the CYP4B1 proteins in stably transduced and G418-resistant HepG2 cells was assessed by determining the protein expression levels over time either in western blotting or in FACS analysis as EGFP fluorescence. […] For the human native protein (h-S427), the mean fluorescence indicates a short average half-life of only 6 hours.
# HepG2 cells [2] = assay: 4-IPO toxicity assay: survival of transduced HepG2 cells by flow cytometry (propidium iodine); type: cell-based, human; conditions: for 4-IPO processing activity / cell killing (in words): transduced cells challenged with 4-IPO
# From the text: Initially, the serine at position 427 in the human CYP4B1 was mutated back to proline (h-P427), which is present at this position in all CYP4B1 proteins. Additionally a proline to serine exchange was created in the native rabbit CYP4B1 enzyme at the corresponding position 422 (r-P422). To immediately exclude the possibility that the different activities between human and the rabbit protein isoforms are simply due to differences in mRNA stability, the human CYP4B1 cDNA (SEQ ID NO.: 2) was optimized for human-codon usage (SEQ ID NO.: 3) by de novo synthesis with silent mutagenesis of the cDNA, thus removing internal TATA-boxes, instability motives, RNA secondary structures and (cryptic) splice donor/acceptor sites and ensuring an average GC content of around 60%. All cDNAs were cloned into the same lentiviral (LV) HIV1-based expression vector and LV supernatants produced by plasmid transfection in HEK293T cells. Subsequently, the two rabbit and the four human cDNAs were stably expressed in the human liver cell line HepG2. Stably expressing transduced cells were challenged after five days with increasing concentrations of 4-IPO for 24, 48 and 72 hours and then the survival of cells analyzed by flow cytometry using propidium iodine for live/dead cell discrimination.
# as §1
# [3] = relative to rabbit CYP4B1, cited from earlier work
Molecule,killing of primary T-cells with 4-IPO (in words) (primary human T-cells),"protein stability (in words) (HepG2 cells [1]; cycloheximide, HepG2 cells)","transduced HepG2 cells eliminated / dead (HepG2 cells [2]; after 24 hours of 4-IPO treatment, FIG. 2)",activity to activate 4-IPO compared to the rabbit CYP4B1 [3],activity to activate 4-IPO compared to the rabbit CYP4B1 ([3]; listed as human isoform),"protein half-life (HepG2 cells [1]; 50 μg/ml cycloheximide, G418-selected HepG2 cells)",4-IPO processing activity / cell killing (in words) (HepG2 cells [2]; listed as native CYP4B1 protein),4-IPO processing activity / cell killing (in words) (HepG2 cells [2]; listed as native human CYP4B1 S427 protein)
B1,more active than the native P427 and the human codon-optimized P427 CYP4B1 enzymes,strongest protein stability,over 95%,,,,,
B2,,,,> 1%,≤ 1%,6 h,comparable to the survival rate of non-transduced control cells,cannot process 4-IPO at all
